Residue numbers refer to the chain shown, from its start. In names and notes the source's numbering stands.
Experiments:
Insulin = test: ELISA on coated insulin, OD450
[1] = molecular target: T1, cynomolgus monkey CD47-Fc (cynomolgus monkey, UniProt Q08722 19-139 (human entry), limits assumed); test: HTRF competition with labelled h5F9G4 IgG1 (m11) for cyno CD47-Fc, normalised 665/615 ratio
T1 construct: also called cCD47; cyno CD47-Fc; not shown: Fc part
T1 chain: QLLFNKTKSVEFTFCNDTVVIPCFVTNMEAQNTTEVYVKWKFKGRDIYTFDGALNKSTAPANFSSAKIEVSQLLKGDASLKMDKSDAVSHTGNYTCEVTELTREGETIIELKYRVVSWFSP

human CD47-Fc [2] = molecular target: T2, human CD47-Fc (human, UniProt Q08722 19-139); test: competition ELISA: human CD47-Fc binding to plate-bound human SIRPa-Fc, % binding
T2 construct: also called hCD47; human CD47-Fc protein; not shown: Fc part

human CD47-Fc [3] = molecular target: T2, human CD47-Fc; test: direct ELISA, coated human CD47-Fc, OD450 [D00009 FIG. 6C; D00010 FIG. 6E; D00011 FIG. 6G]
human CD47-Fc [4] = molecular target: T2, human CD47-Fc; test: HTRF epitope competition; competitor Tb-labelled h5F9G4 IgG1 on biotinylated human CD47-Fc
[5] = molecular target: T3, human CD47 on cells (human CD47-transfected CHO-K1 cells; HL60; Jurkat) (human, UniProt Q08722 19-323); test: flow cytometry, human CD47-transfected CHO-K1 cells, 100-0.024 µg/ml
T3 construct: CHO-K1 cells stably transfected with human CD47 full-length cDNA; also endogenous CD47 of the human AML line HL60 and of Jurkat cells; also called human CD47+ cells; human CD47+CHO-K1

[6] = molecular target: T4, cynomolgus monkey CD47 on cyno CD47-transfected CHO-K1 cells (cynomolgus monkey, UniProt Q08722 19-323 (human entry)); test: flow cytometry, cyno CD47-transfected CHO-K1 cells, 100-0.024 µg/ml
T4 construct: CHO-K1 cells stably transfected with cyno CD47 full-length cDNA; also called cyno CD47+ cells; cyno CD47+CHO-K1
T4 chain: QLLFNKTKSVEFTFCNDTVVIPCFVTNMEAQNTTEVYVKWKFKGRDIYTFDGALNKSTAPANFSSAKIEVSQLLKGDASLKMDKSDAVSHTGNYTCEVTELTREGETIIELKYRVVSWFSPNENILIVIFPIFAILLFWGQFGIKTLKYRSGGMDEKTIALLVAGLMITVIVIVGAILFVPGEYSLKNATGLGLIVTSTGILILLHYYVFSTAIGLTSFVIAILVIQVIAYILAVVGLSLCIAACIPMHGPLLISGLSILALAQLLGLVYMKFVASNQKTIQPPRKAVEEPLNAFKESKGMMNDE

human CD47-Fc [7] = molecular target: T2, human CD47-Fc; test: HTRF competition with labelled h5F9G4 IgG1 (m11) for human CD47-Fc, normalised 665/615 ratio
[8] = molecular target: T1, cynomolgus monkey CD47-Fc; test: direct ELISA, coated cyno CD47-Fc, OD450 [D00009 FIG. 6D; D00010 FIG. 6F; D00011 FIG. 6H]
[9] = molecular target: T1, cynomolgus monkey CD47-Fc; test: HTRF epitope competition; competitor Tb-labelled h5F9G4 IgG1 on biotinylated cyno CD47-Fc
[10] = molecular target: T1, cynomolgus monkey CD47-Fc; test: competition ELISA: cyno CD47-Fc binding to plate-bound human SIRPa-Fc, OD450
human CD47-Fc [11] = molecular target: T2, human CD47-Fc; test: HTRF competition with labelled h5F9G4 IgG1 (m11) for human CD47-Fc, 665/615 ratio
human CD47-Fc [12] = molecular target: T2, human CD47-Fc; test: as above; remark: listed apart in the source
human CD47-Fc [13] = molecular target: T2, human CD47-Fc; test: competition ELISA: human CD47-Fc binding to plate-bound human SIRPa-Fc, OD450
human CD47-Fc [14] = molecular target: T2, human CD47-Fc; test: direct ELISA, coated human CD47-Fc, OD450
[15] = molecular target: T1, cynomolgus monkey CD47-Fc; test: competition ELISA: cyno CD47-Fc binding to plate-bound human SIRPa-Fc, % binding
[16] = molecular target: T1, cynomolgus monkey CD47-Fc; test: direct ELISA, coated cyno CD47-Fc, OD450
[17] = molecular target: T4, cynomolgus monkey CD47 on cyno …; test: flow cytometry, CHO-K1 cells transfected with cyno CD47, MFI
human CD47-Fc [18] = molecular target: T2, human CD47-Fc; test: direct ELISA, coated human CD47-Fc, OD450; remark: listed apart in the source
[19] = molecular target: T5, Cyno CD47 (Biacore steady state analysis) (cynomolgus monkey, UniProt Q08722 19-139 (human entry), limits assumed); test: Biacore SPR, steady state affinity, monomeric Fab
T5 construct: The construct on the Biacore chip is not described (possibly CD47-Fc)
T5 chain: T1 chain

Chain of Insulin (P01308 25-54, chain 1 of 2): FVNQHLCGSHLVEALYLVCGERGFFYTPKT
Chain of Insulin (P01308 90-110, chain 2 of 2): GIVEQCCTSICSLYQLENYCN

Bococizumab human IgG1 analogue (antibody)
EC50 (read off the curve) (Insulin): 0.02 µg/mL

B1: chimeric anti-CD47 m5F9G4, human IgG1null (antibody, V domains shown)
VH: QVQLQQPGAELVKPGASVMMSCKASGYTFTNYNMHWVKQTPGQGLEWIGTIYPGNDDTSYNQKFKDKATLTADKSSSAAYMQLSSLTSEDSAVYYCARGGYRAMDYWGQGTSVTVSS
VL: DVLMTQTPLSLPVSLGDQASISCRSSQSIVYSNGNTYLGWYLQKPGQSPKLLIYKVSNRFSGVPDRFSGSGSGTDFTLKISRVEAEDLGVYHCFQGSHVPYTFGGGTKVEIK
notes: Murine v-domains on human IgG1null (IgG1 with L234A/L235A/G237A), kappa; also called m5F9G4 IgG1; m59G4
IC50 (read off the curve) [1]: ~0.1 µg/mL | IC50 (read off the curve) (human CD47-Fc [2]): ~0.3 µg/mL | EC50 (read off the curve) (human CD47-Fc [3]): ~0.07 µg/mL | IC50 (human CD47-Fc [4]): 0.601 µg/mL | maximum MFI over background on untransfected CHO-K1 (fold) [5]: > 50 fold | maximum MFI over background on untransfected CHO-K1 (fold) [6]: > 50 fold | IC50 (read off the curve) (human CD47-Fc [7]): ~0.3 µg/mL | EC50 (read off the curve) [8]: ~0.06 µg/mL | IC50 [9]: 0.809 µg/mL | IC50 (read off the curve) [10]: ~3 nM | IC50 (read off the curve) (human CD47-Fc [11]): ~0.05 µg/mL | IC50 (read off the curve) (human CD47-Fc [12]): ~0.05 µg/mL | IC50 (read off the curve) (human CD47-Fc [13]): ~1 nM | EC50 (read off the curve) (human CD47-Fc [14]): ~0.04 µg/mL | IC50 (read off the curve) [15]: ~0.2 µg/mL

B2: F-E5, human IgG1null (antibody, V domains shown)
VH: EVQLVQSGAEVKKPGESLKISCKGSGYSFTNYNIHWVRQMPGKGLEWMGTIYPGNSDTSYNPKFQGQVTISADKSISTAYLQWSSLKASDTAMYYCARGGKRAMDYWGQGTLVTVSS
VL: DIVMTQSPLSLPVTPGEPASISCRSSQSLLHSNGNTYLGWYLQKPGQSPQLLIYKGSNRFSGVPDRFSGSGSGTDFTLKISRVEAEDVGVYYCMQASQVPYTFGQGTKLEIK
notes: framework limits derived from the Unified CDR definitions; IgG1null; also called Clone F-E5
binding result [16]: binds | IC50 (read off the curve) (human CD47-Fc [11]): ~4 µg/mL | EC50 (read off the curve) (human CD47-Fc [14]): ~0.06 µg/mL

B3: D6 IgG, human IgG1null (antibody, V domains shown)
VH: B2 VH with K63S, K101V
VL: B2 VL
notes: The text prints both D6 and D-A6 for what reads as the same clone; IgG1null; also called D-A6 IgG; Clone D6
binding result [16]: binds | IC50 (read off the curve) (human CD47-Fc [12]): ~4 µg/mL | EC50 (read off the curve) (human CD47-Fc [14]): ~0.09 µg/mL

B4: E-A1, human IgG1null (antibody, V domains shown)
VH: B2 VH with N55D, S59R, K101Y, M104E
VL: B2 VL with A96G, Q98H
notes: IgG1null; also called Clone E-A1
binding result [16]: binds | IC50 (read off the curve) (human CD47-Fc [11]): ~1 µg/mL

B5: IGHV5-51 graft IgG (IGKV2-28/IGHV5-51 graft), human IgG1null (antibody, V domains shown)
VH: B2 VH with I34M, S56D, P62Q, K101Y
VL: B2 VL with L29I, L30V, H31Y, G56V, M94F, A96G, Q98H
notes: IgG1null; also called IGHV5-51 grafted IgG; IGHV5-51-grafted IgG
IC50 (read off the curve) [10]: ~5 nM | IC50 (read off the curve) (human CD47-Fc [12]): ~0.3 µg/mL | IC50 (read off the curve) (human CD47-Fc [13]): ~4 nM

B6: VH1.8/VL1.3, human IgG1null (antibody, V domains shown)
VH: QVQLVQSGAEVKKPGASVKVSCKASGYTFTNYAMHWVRQAPGQRLEWMGTIYPGNDDTKYNQKFQGRVTITADTSASTAYMELSSLRSEDTAVYYCARGGFRAMDYWGQGTLVTVSS
VL: B2 VL with G34A, M94F
notes: IgG1null; also called Clone VH1.8/VL1.3
IC50 (read off the curve) (human CD47-Fc [2]): ~0.4 µg/mL | binding result [17]: binds | IC50 (human CD47-Fc [4]): 0.928 µg/mL | EC50 (read off the curve) (human CD47-Fc [18]): ~0.06 µg/mL

B7: VH1.8/VL1.6, human IgG1null (antibody, V domains shown)
VH: B6 VH
VL: B2 VL with G34A, M94F, Q98H
notes: IgG1null; also called Clone VH1.8/VL1.6
IC50 (read off the curve) (human CD47-Fc [2]): ~0.3 µg/mL | binding result [17]: binds | IC50 (human CD47-Fc [4]): 0.56 µg/mL | EC50 (read off the curve) (human CD47-Fc [18]): ~0.06 µg/mL

B8: VH1.8/VL1.4, human IgG1null (antibody, V domains shown)
VH: B6 VH
VL: B2 VL with G34A, N35Y, T36N, M94F
notes: IgG1null; also called Clone VH1.8/VL1.4
IC50 (read off the curve) (human CD47-Fc [2]): ~2 µg/mL | binding result [17]: binds | IC50 (human CD47-Fc [4]): 2.94 µg/mL | EC50 (read off the curve) (human CD47-Fc [18]): ~0.06 µg/mL

B9: VH1.8/VL1.5, human IgG1null (antibody, V domains shown)
VH: B6 VH
VL: B2 VL with G34A, N35Y, T36N, M94F, Q98H
notes: IgG1null; also called Clone VH1.8/VL1.5
IC50 (read off the curve) (human CD47-Fc [2]): ~0.4 µg/mL | binding result [17]: binds | IC50 (human CD47-Fc [4]): 0.911 µg/mL | EC50 (read off the curve) (human CD47-Fc [18]): ~0.06 µg/mL

B10: FAB VH1.8/1.1 (Fab, V domains shown)
VH: B6 VH
VL: B2 VL with M94F, Q98H
notes: Fab expressed as soluble monomer; also called VH1.8/VL1.1 Fab
Kd [19]: 17.9 nM

B11: FAB VH1.8/1.6 (Fab, V domains shown)
VH: B6 VH
VL: B2 VL with G34A, M94F, Q98H
notes: Fab expressed as soluble monomer; also called VH1.8/VL1.6 Fab
Kd [19]: 25.9 nM

B12: FAB VH1.8/1.6DI (Fab, V domains shown)
VH: B6 VH
VL: B2 VL with G34A, L52A, V88A, M94F, Q98H
notes: Fab expressed as soluble monomer; VL carries the two deimmunising alanine substitutions; also called VH1.8/VL1.6-DI Fab
Kd [19]: 27.8 nM

Source: patent US20260015420A1 (CENTESSA PHARMACEUTICALS UK, published 2026)
